Experimental data taken from US20230140868A1, “COMPOSITIONS AND METHODS FOR TREATING CANCER” (Alpha Beta Holdings, LLC, priority 2020, published 2023).

Columns and labels:
tumor cells [1] = assay: In vitro ADCC with mouse bone marrow derived macrophages (LM609); format: cell-based; conditions: effector: BMDM isolated from healthy mice
Procedure: Mouse bone marrow-derived macrophages (BMDMs) were aseptically harvested from euthanized 8-10 week-old female C57BL/6 mice by flushing leg bones with RPMI, filtering through 70 μm cell strainers, and incubating in Red Blood Cell Lysing Buffer Hybri-Max™ (Sigma, R7757). Cells were incubated with mouse M-CSF (Peprotech, 315-02) for 7 days before ADCC assays.
(§1) We used the isolated macrophages as effector cells in an antibody-dependent cellular-cytotoxicity (ADCC) assay. […] The ratio of dead target cells (PI-positive) to the total target cell population (CFSE-positive) was calculated as described (Bracher, 2007).

[2] = test system: αvβ3-expressing human pancreatic xenograft tumors; assay: αvβ3-expressing human pancreatic xenograft with or without macrophage depletion; format: in vivo, nude mice
Text: (§2) Successful depletion of macrophages by clodronate treatment was confirmed by staining tumor sections for the mouse macrophage marker F4/80.

[3] = test system: HCC827-R18 erlotinib-resistant tumor cells; assay: Re-sensitization of erlotinib-resistant HCC827-R18 xenografts (FIG. 1); format: in vivo, nu/nu mice; conditions: LM609 i.p., 10 mg/kg, twice/week with erlotinib 6.25 mg/kg vs erlotinib alone
Procedure: HCC827-R18 and PC9-R4L erlotinib-resistant tumor cells generated as reported in Wettersten et al., Cancer Res. 79:5048 (2019), incorporated by reference herein in its entirety, were injected to form subcutaneous flank tumors in nu/nu recipient mice. […] Tumor dimensions were measured biweekly and volume calculated as […].
To generate erlotinib-resistant tumors […], HCC827 or PC9 human lung cancer cells (5×10^6 tumor cells in 100 μl of PBS) were subcutaneously injected to the right flank of female nu/nu mice (Charles River, 088, 8-10 weeks old) and tumors were measured with calipers twice per week. Animals with a tumor volume of 100-200 mm^3 were randomly assigned into groups treated with combinations of Captisol (oral, six times/week) or erlotinib (oral, 6.25 mg/kg, six times/week). For each of the individual tumors shown in Figure S3 of Wettersten et al., Cancer Res. 79:5048 (2019)}, vehicle-treated erlotinib sensitive (HCC827-P and PC9-P) and erlotinib-resistant (HCC827-R18 and PC9-R4L) cells were isolated. A gain of αvβ3 expression on the cell surface of the erlotinib-resistant tumor cells was confirmed by flow cytometry.

tumor cells [4] = assay: In vitro ADCC with human monocyte-derived macrophages from healthy donor blood (LM609); format: cell-based; conditions: effector: human monocyte-derived macrophages from healthy donor blood
Procedure: (§3) Human peripheral blood mononuclear cells (PBMCs) and macrophages were isolated using leukoreduction system chambers (LRSC) purchased from the San Diego Blood Bank. PBMCs were isolated from LRSC using Histopaque-1083 (Sigma, 10831) following the manufacturer's protocol. To obtain macrophages, PBMCs were incubated in tissue culture plates with human M-CSF (Peprotech, 300-25) for 5 days.
as §1

integrin αvβ3 = integrin αvβ3 (Homo sapiens, UniProt P05106+P06756); conditions: human cells; Cheresh, 1987; cited from earlier work
[5] = test system: αvβ3-expressing human lung xenograft tumors; assay: αvβ3-expressing human lung xenograft with or without macrophage depletion; format: in vivo, nude mice
Text: as §2

[6] = test system: αvβ3-expressing human lung cancer cells; assay: In vitro ADCC, primary human monocyte-derived macrophages as effector cells (FIG. 10A); format: cell-based; conditions: increasing E:T
Text: (A) In vitro ADCC for primary human monocyte-derived macrophages as effector cells. (B). In vitro ADCC for human NK cells as effector cells. Graphs show effect of increasing effector-to-target ratio (E:T) on death of αvβ3-expressing human lung cancer cells.
This distinction could produce a therapeutic advantage by achieving matching between the antigen (integrin αvβ3) and the types of effector cells that are particularly enriched in αvβ3-expressing tumors, such as macrophages.

[7] = test system: αvβ3-expressing tumor cell lines; assay: Macrophage-mediated killing: Fc dependence, ADCC vs ADCP vs direct killing; format: cell-based
Procedure: as §1
These findings were reported in FIGS. 3C-3D of Wettersten et al., Cancer Res. 79:5048 (2019).
Monoclonal antibodies can direct macrophages to induce tumor cell killing through two primary mechanisms, processes known as antibody-dependent cellular phagocytosis (ADCP) and antibody-dependent cellular cytotoxicity (ADCC). […] The lack of an ADCP response is consistent with high tumor cell expression of CD47, the “don't eat me” signal (Chao, 2012) that tumor cells often exploit to evade phagocytosis.

tumor cells [8] = assay: In vitro ADCC with human PBMCs; format: cell-based; conditions: effector: PBMCs isolated from human blood
Procedure: as §3, §1
To our surprise, LM609-mediated ADCC was not achieved with mouse NK cells or peripheral blood mononuclear cells (PBMCs) isolated from human blood, immune effector cell types to which antibodies are commonly engineered for optimal binding (Listinsky, 2013; Yu, 2017). In fact, NK cells are not correlated with β3 expression in tumors. These findings were reported in FIG. 3E of Wettersten et al., Cancer Res. 79:5048 (2019).

[9] = macrophage depletion using clodronate liposomes
[10] = reported in FIG. 2A of Wettersten et al.
[11] = additional αvβ3-expressing tumor cell lines: lung, pancreas, brain, kidney cancer

Chain of integrin αvβ3 (P06756 31-889 limits assumed): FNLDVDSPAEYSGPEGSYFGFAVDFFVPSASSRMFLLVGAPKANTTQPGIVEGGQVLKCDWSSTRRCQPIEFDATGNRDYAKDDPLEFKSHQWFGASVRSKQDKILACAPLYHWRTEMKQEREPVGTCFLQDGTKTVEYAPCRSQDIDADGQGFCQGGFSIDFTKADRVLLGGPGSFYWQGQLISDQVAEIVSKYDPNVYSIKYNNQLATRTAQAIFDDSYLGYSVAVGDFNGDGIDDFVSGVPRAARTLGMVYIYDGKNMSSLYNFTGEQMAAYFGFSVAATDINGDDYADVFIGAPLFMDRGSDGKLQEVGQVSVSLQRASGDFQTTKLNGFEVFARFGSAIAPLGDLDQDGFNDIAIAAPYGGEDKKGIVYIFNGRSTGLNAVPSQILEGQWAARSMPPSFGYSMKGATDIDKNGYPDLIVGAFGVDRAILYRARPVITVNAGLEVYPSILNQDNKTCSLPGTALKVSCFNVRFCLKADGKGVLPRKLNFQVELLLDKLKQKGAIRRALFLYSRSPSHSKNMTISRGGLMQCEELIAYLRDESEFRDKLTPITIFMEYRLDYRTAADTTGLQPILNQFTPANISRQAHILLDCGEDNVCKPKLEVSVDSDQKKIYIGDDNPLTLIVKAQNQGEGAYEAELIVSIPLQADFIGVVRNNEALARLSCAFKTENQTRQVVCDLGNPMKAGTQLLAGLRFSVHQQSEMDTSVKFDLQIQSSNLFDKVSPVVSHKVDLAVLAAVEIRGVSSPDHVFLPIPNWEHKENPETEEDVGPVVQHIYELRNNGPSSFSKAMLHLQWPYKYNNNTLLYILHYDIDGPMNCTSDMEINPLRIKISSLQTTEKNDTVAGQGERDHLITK
Chain of integrin αvβ3 (P06756 891-1048 limits assumed): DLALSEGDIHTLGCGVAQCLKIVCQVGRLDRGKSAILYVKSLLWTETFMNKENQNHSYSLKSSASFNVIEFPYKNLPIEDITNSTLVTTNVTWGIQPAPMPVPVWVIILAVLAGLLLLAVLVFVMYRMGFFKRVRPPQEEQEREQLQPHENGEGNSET
Chain of integrin αvβ3 (P05106 27-788): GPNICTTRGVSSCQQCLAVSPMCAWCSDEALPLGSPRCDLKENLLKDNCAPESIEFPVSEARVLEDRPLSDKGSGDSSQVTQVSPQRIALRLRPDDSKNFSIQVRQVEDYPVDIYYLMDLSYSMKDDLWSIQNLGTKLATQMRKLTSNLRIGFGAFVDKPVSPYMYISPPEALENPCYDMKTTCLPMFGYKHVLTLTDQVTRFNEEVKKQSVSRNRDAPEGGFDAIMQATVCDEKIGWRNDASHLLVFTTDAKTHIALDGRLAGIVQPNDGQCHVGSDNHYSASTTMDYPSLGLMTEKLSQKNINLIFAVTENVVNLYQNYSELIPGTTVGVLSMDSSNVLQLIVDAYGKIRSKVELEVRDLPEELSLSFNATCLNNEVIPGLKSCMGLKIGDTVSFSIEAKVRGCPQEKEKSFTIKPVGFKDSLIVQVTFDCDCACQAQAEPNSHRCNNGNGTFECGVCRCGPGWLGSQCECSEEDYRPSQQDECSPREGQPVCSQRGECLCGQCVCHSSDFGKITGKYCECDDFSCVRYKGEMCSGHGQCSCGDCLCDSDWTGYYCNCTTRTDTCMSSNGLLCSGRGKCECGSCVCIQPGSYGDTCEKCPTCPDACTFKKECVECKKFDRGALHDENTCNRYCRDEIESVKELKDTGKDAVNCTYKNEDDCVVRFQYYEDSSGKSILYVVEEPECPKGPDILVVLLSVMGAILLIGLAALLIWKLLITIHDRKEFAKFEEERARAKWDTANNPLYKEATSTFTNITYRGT

B1: LM609: mouse monoclonal IgG1K antibody that recognizes human integrin αvβ3; SEQ ID NO:11 and 12 (antibody)
heavy: MNFGLRLIFLVLTLKGVKCEVQLVESGGGLVKPGGSLKLSCAASGFAFSSYDMSWVRQIPEKRLEWVAKVSSGGGSTYYLDTVQGRFTISRDNAKNTLYLQMSSLNSEDTAMYYCARHNYGSFAYWGQGTLVTVSAAKTTPPSVYPLAPGSAAQTNSMVTLGCLVKGYFPEPVTVTWNSGSLSSGVHTFPAVLQSDLYTLSSSVTVPSSTWPSETVTCNVAHPASSTKVDKKIVPRDCGCKPCICTVPEVSSVFIFPPKPKDVLTITLTPKVTCVVVDISKDDPEVQFSWFVDDVEVHTAQTQPREEQFNSTFRSVSELPIMHQDWLNGKEFKCRVNSAAFPAPIEKTISKTKGRPKAPQVYTIPPPKEQMAKDKVSLTCMITDFFPEDITVEWQWNGQPAENYKNTQPIMDTDGSYFVYSKLNVQKSNWEAGNTFTCSVLHEGLHNHHTEKSLSHSPGK
light: MVFTPQILGLMLFWISASRGDIVLTQSPATLSVTPGDSVSLSCRASQSISNHLHWYQQKSHESPRLLIKYASQSISGIPSRFSGSGSGTDFTLSINSVETEDFGMYFCQQSNSWPHTFGGGTKLEIKRADAAPTVSIFPPSSEQLTSGGASVVCFLNNFYPKDINVKWKIDGSERQNGVLNSWTDQDSKDSTYSMSSTLTLTKDEYERHNSYTCEATHKTSTSPIVKSFNRNEC
modifications: mAb LM609-mIgG1-kappa Heavy chain; mAb LM609-mIgG1-kappa Light chain
Tumor cells [1]
  ADCC (tumor cell killing): could also kill tumor cells
[2]; [9]
  anti-tumor effect after macrophage depletion: completely blocked
[2]; [10]
  sensitivity of xenograft tumors to LM609: highly sensitive
[3]
  re-sensitization of resistant tumors to erlotinib (tumor volume): able to re-sensitize resistant tumors to the growth inhibitory effects of erlotinib
Tumor cells [4]
  ADCC (tumor cell killing): could also kill tumor cells
Integrin αvβ3
  recognition of integrin αvβ3: recognizes integrin αvβ3 on human
[5]; [9]
  anti-tumor effect after macrophage depletion: completely blocked
[5]; [10]
  sensitivity of xenograft tumors to LM609: highly sensitive
[6]
  ADCC with human macrophages as effector cells: able to induce ADCC
[7]; FIG. 3F of Wettersten et al.
  ADCP: not ADCP
  direct killing: not ADCP or direct killing
[7]; [11]
  ADCP: not ADCP
  direct killing: not ADCP or direct killing
  macrophage-mediated ADCC: also observed
[7]; in the presence of an antibody blocking the Fc receptors CD16, CD32, and CD64
  macrophage-mediated killing: no macrophage-mediated killing
[7]; required integrin β3 expression, FIG. 3F of Wettersten et al.
  macrophage ADCC: induced macrophage ADCC
Tumor cells [8]
  LM609-mediated ADCC: not achieved
